B1: chicken PD-1 protein (receptor)
chain: MALGTSRTMWDSTEAALVVLCVLLLCCNPPLAGCHQVTLFPATLTRPAGSSATFICNISMENSSLEFNLNWYQKTNNSNPQKIAGIIRNIPQKKMEKYRLFNNTPVFKMEILNLHQNDSGFYYCGLITFSRSDKVVESSHSQLVVTEAPEKTNTIDEPSEEESSPPDHIKAVLLGTLLLAGVIVLLLFGYIIINNRRADVQKPSSGNTLAEVKPPVVPVPTVDYGVLEFQRDPHSQVPLETCPAEQTEYATIVFPEEKPITPERGKRHKDERTWQLPSQPC
modifications: labeled using the BLUE-NHS protein labeling kit (NanoTemper)

One test addresses chicken PD-L1 protein (chicken). In words: MST.
The test “chicken PD-1 protein” deals with B1. In words: MST.

In general, Kd refers to the concentration at which binding is half-saturated. Turning to B1, the Kd with chicken PD-L1 protein was 2.65 nM. This lies in the single-digit nanomolar range. In turn, DAGLYHCLIEYGGADYKTINLK [peptide gDK2-3] showed a Kd in the test with chicken PD-1 protein of 9.73 nM. This counts as single-digit nanomolar.

These data come from PMC11533547 (Poultry Science, 2024).
